The values that follow come from patent US6383484.

The target in experiment [1] is VEGF-DΔNΔC (human VEGF-D residues 93 to 201, FLAG-tagged at the N-terminus) (human) (UniProt O43915). Description: cell-based or functional assay.
Experiment [2] shares this target. The experiment can be described thus: SPR (BIAcore 3000), antibody immobilized, human VEGF-DΔNΔC flowed at 41-689 nM, 1:1 Langmuir model. For orientation: In SPR one partner is held on a chip, and binding of the other changes the refractive index at the surface.
The target of experiment [3] is T1, chimeric protein consisting of the extracellular domain of human VEGFR-1 and the Fc portion of human IgG (human, UniProt P17948 27-758).
T1 construct: extracellular domain; also called VEGFR-1/Ig; not shown: Fc portion of human IgG
T1 sequence (P17948 27-758, change not shown): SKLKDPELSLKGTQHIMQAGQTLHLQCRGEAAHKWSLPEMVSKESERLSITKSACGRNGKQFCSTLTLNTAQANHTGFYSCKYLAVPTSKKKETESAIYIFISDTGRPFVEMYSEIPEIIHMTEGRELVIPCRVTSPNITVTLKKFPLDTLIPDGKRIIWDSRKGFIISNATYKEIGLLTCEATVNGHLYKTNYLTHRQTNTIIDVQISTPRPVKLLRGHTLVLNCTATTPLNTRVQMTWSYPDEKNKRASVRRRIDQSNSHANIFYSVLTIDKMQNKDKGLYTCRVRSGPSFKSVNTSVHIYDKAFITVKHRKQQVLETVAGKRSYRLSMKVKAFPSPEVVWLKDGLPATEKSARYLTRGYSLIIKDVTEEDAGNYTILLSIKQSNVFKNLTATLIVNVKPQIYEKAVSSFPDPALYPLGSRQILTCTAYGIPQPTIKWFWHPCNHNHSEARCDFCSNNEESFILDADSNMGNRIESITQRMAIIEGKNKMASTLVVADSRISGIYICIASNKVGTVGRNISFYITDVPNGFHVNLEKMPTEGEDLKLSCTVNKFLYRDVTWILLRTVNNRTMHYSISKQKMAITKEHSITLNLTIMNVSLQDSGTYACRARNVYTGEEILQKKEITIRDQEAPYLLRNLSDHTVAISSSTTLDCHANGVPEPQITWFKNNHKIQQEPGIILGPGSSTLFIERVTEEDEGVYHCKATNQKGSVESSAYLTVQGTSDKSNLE
The experiment can be described thus: plate receptor-binding assay, VEGFR-1/Ig coated, detection with biotinylated M2.

Usually Kd stands for a measure of binding affinity in units of concentration. Low values mean higher affinity, high ones lower affinity. As a reminder, the koff is the rate constant with which the complex falls apart. High values mean fast dissociation, low ones slow dissociation. As usually defined, the kon is the second-order rate constant of association. A lower kon goes with slow association. monoclonal antibody 4E10: the response of Ba/F3-NYK-EpoR cells to VEGF-D?N?C (3H-thymidine incorporation) in experiment [1] was 80 µg/mL. Also, in experiment [2], the Kd stood at 57.1 nM, the koff was found to be 0.00445 s⁻¹ and the association rate constant (kon) worked out at 78000 M⁻¹ s⁻¹.

B1: VEGF-DΔNΔC (human VEGF-D residues 93 to 201, FLAG-tagged at the N-terminus) (ligand)
chain: FYDIETLKVIDEEWQRTQCSPRETCVEVASELGKSTNTFFKPPCVNVFRCGGCCNEESLICMNTSTSYISKQLFEISVPLTSVPELVPVKVANHTGCKCLPTAPRHPYS
notes: also called VEGF-D?N?C; human VEGF-D?N?C; not shown: FLAG octapeptide (Sigma) at the N-terminus; any vector-de
Consider B1, for which the binding result in experiment [3] is recorded as “no binding (tested: 7.3 µg/ml VEGF-DΔNΔC)”.
